Patent publication US20220298260A1 (MYTHIC THERAPEUTICS, published 2022)
Numbering of substitutions follows the chain as printed.

B1: MYT0598 (antibody, V domains shown)
VH: QVQLVQSGAEVVKPGASVKISCKHSGYTFTGYFMNWVKQSPGQSLEWIGRIHPYDGDTFYNQKFQGKATLTVDKSSNTAHMELLSLTSEDFAVYYCTRYDGSRAMDYWGQGTTVTVSS
VL: DIVLTQSPLSLAVSLGQPAIISCKASQSVSFAGTSLMHWYHQKPGQQPRLLIYRASNLEAGVPDRFSGSGSKTDFTLTISPVEAEDAATYYCQQSREYPYTFGGGTKLEIK
notes: IgG
B2: MYT0624 (antibody, V domains shown)
VH: B1 VH with H24A, F64H
VL: B1 VL
notes: IgG
B3: MYT0621 (antibody, V domains shown)
VH: B1 VH with H24A, N61H
VL: B1 VL
notes: IgG
B4: MYT0629 (antibody, V domains shown)
VH: B1 VH with H24A, Y99H
VL: B1 VL
notes: IgG
B5: MYT0632 (antibody, V domains shown)
VH: B1 VH with H24A, S102H
VL: B1 VL
notes: IgG
B6: MYT0597 (antibody, V domains shown)
VH: B1 VH with K23H, H24A
VL: B1 VL
notes: IgG
B7: MYT0611 (antibody, V domains shown)
VH: B1 VH with H24A, I51H
VL: B1 VL
notes: IgG
B8: MYT0618 (antibody, V domains shown)
VH: B1 VH with H24A, T58H
VL: B1 VL
notes: IgG
B9: MYT0608 (antibody, V domains shown)
VH: B1 VH with H24A, M34H
VL: B1 VL
notes: IgG
B10: MYT0614 (antibody, V domains shown)
VH: B1 VH with H24A, Y54H
VL: B1 VL
notes: IgG
B11: MYT0607 (antibody, V domains shown)
VH: B1 VH with H24A, F33H
VL: B1 VL
notes: IgG
B12: MYT0620 (antibody, V domains shown)
VH: B1 VH with H24A, Y60H
VL: B1 VL
notes: IgG
B13: MYT0628 (antibody, V domains shown)
VH: B1 VH with H24A, R98H
VL: B1 VL
notes: IgG
B14: MYT0627 (antibody, V domains shown)
VH: B1 VH with H24A, T97H
VL: B1 VL
notes: IgG
B15: MYT0604 (antibody, V domains shown)
VH: B1 VH with H24A, T30H
VL: B1 VL
notes: IgG
B16: MYT0617 (antibody, V domains shown)
VH: B1 VH with H24A, D57H
VL: B1 VL
notes: IgG
B17: MYT0619 (antibody, V domains shown)
VH: B1 VH with H24A, F59H
VL: B1 VL
notes: IgG
B18: MYT0599 (antibody, V domains shown)
VH: B1 VH with H24A, S25H
VL: B1 VL
notes: IgG
B19: MYT0630 (antibody, V domains shown)
VH: B1 VH with H24A, D100H
VL: B1 VL
notes: IgG
B20: MYT0616 (antibody, V domains shown)
VH: B1 VH with H24A, G56H
VL: B1 VL
notes: IgG
B21: MYT0605 (antibody, V domains shown)
VH: B1 VH with H24A, G31H
VL: B1 VL
notes: IgG
B22: MYT0602 (antibody, V domains shown)
VH: B1 VH with H24A, T28H
VL: B1 VL
notes: IgG
B23: MYT0612 (antibody, V domains shown)
VH: B1 VH with H24A, H52A
VL: B1 VL
notes: IgG
B24: MYT0600 (antibody, V domains shown)
VH: B1 VH with H24A, G26H
VL: B1 VL
notes: IgG
B25: MYT0626 (antibody, V domains shown)
VH: B1 VH with H24A, G66H
VL: B1 VL
notes: IgG
B26: MYT0633 (antibody, V domains shown)
VH: B1 VH with H24A, R103H
VL: B1 VL
notes: IgG
B27: MYT0615 (antibody, V domains shown)
VH: B1 VH with H24A, D55H
VL: B1 VL
notes: IgG
B28: MYT0625 (antibody, V domains shown)
VH: B1 VH with H24A, Q65H
VL: B1 VL
notes: IgG
B29: MYT0606 (antibody, V domains shown)
VH: B1 VH with H24A, Y32H
VL: B1 VL
notes: IgG
B30: MYT0622 (antibody, V domains shown)
VH: B1 VH with H24A, Q62H
VL: B1 VL
notes: IgG
B31: MYT0601 (antibody, V domains shown)
VH: B1 VH with H24A, Y27H
VL: B1 VL
notes: IgG
B32: MYT0610 (antibody, V domains shown)
VH: B1 VH with H24A, R50H
VL: B1 VL
notes: IgG
B33: MYT0623 (antibody, V domains shown)
VH: B1 VH with H24A, K63H
VL: B1 VL
notes: IgG

Target: T1, FOLR1 (R&D Systems, Cat #5646-FR) (human, UniProt P15328 25-233)
T1 construct: Bought soluble protein; also called Folate Receptor 1
Test: BLI, IgG on anti-human Fc sensor, 50 nM FOLR1

T1 sequence (P15328 25-233 limits assumed): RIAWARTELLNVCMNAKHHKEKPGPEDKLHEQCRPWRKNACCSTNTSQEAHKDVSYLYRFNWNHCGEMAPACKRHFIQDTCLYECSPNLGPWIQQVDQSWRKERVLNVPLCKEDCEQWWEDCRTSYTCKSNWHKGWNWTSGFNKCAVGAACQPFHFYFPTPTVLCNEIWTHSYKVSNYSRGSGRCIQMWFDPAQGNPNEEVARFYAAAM

Binding result, binds:
B1, B2, B3, B4, B5, B6, B7, B8, B9, B10, B11, B12, B13, B14, B15, B16, B17, B18, B19, B20, B21, B22, B23, B24, B25, B26, B27, B28, B29, B30, B31, B32, B33
